Test results: the DeepSol protein solubility set

Assay: soluble on expression in E. coli; label from the status in PepcDB or PDB records

Sequence	soluble on expression in E. coli
MLSGPHPSPTFRPNPCPWPCLHSLWMEISPTQLCFLSPGPSPQSPSCCFQGMNSGSELGKLWRKLFKGIPRLSVSHFDFYCGTCVLLGRPQIPQGSSLGNDIDQYPVVFRNASDQGSWMQLEMLLRKLSDLVWTSDALSDKILEDGLVP	soluble
MKLQSYLMGEWREGQGEGVPVRDASTGEVLARVTAEGLPVKEAVAWGREVGGKALLALGFQERGRRLRALAQYLSERKEALYRLYATTGGTRRDAWYDVDGGIGVLYAYSSLARNLPEGNLLPEDDFLPLSKDLSFQGRHVLAPKGGITVQINAFNFPVWGLLEKFAPAFLAGVPTLAKPATPTAHVAEALVRTMLESGLLPEGSLQLLVGSVGDLFDALDHRDSVFFTGSKATADRLRRHPAFLERGALFNAEADSLNPAILGEKATEEELSRLAQEIAQELVIKTGQRCTAIRRVFAPRERLKALLEATRKRLEALRLGDPREEGVDLGPLASLEQKAEVEKAVAALLEAGARVYWRHPGREDGAFFPPTLLLAEDPWPGALHQVEPFGPVATFFPYGSREEAARLAALGGGSLVATLATSDPEEARFYLLALAPYVGRLHLLNARTAASSTGHGSPLPRLLHGGPGRAGGGEELGGLLSVRRHLGRVALQADPWLLSALTGEYAKGAEKPAEVHPFRKAYEDLEVGETLTTHRRTVTEADIALFSALSWDHFYAHTDEIAARESLFGKRVAHGYFVLSAAAGLFVDPAPGPVLANYGLEGLRFLEPVGAGDTLQVRLTVKRKRPRDEKTGVVEWAAEVVNQEGKPVATYTVLTLVARKGALAKGS	soluble
GMASEFDLIQRYFRRAHPSAVLGVGDDAALIQPSPGMELAVSADMLVANTHFYPNIDPWLIGWKSLAVNISDMAAMGAQPRWATLTIALPEADEDWISKFAAGFFACAAQFDIALIGGDTTRGPLTISVQIMGETPPGASLLRSTARADDDIWVSGPLGDAALALAAIQGRYPLSDTELAACGKALHQPQPRVVLGQALRGLAHSALDISDGLLADLGHILEHSQVGAEVWLKAIPKSEVVSAHSQEVAIQKMILSGGDDYELCFTASTQHRQQIADIGRQLSLDMAVIGRITDTQQLVIHGLDDAPLTLKEHGFDHFA	soluble
MIFYLLPSEKKQSTMDLVKEDYFSIWENREKNRFPELNPYRKELIEYFKVETKPLAPAWRRYNGKFWDSLEFWCLPPEVQQNIIDRGIIISPLFGMLGVNDPIPRYSVTFQDKYKGKKLTEFWKEVLKDISKKMFESSVIFDFLTTEQRETLTFPEDVTFVRFDYIRKGKKVVNPMPHRAYTLRYIVEKNVDLNSLEKINFYDYKVSKIEKEGNVIRVIMESEGRYI	not soluble
MGSDKIHHHHHHMSTINNRNPKISVLMSIYKENSLYVRQAIDSILNQSFGDFEFLIYNDNPEDFILDKLVLEIARKDSRIQYQRNEKNIGLAATLNRQICVAKGEYLARMDADDISLPDRFIMQVEYLDRNTNIAVLGTWAKIIDKEGQVISSASLKTGYNNIIACAMCDSPLFHPSVMIRKEFLQLNGLSYNEDFSCAQDYELWSRILFEKGGYIDNLSVYLIYYRVTTSQISSIKQQQQIYNSLLVRRNNISFFLNKYSIDLPRKITKTDVCNLINRISEFKEESSTHKIYVNILFMYCMSLPRLEKIILLIKYVCVFYSEFSLKQMCLLVASSFFMRKFPLCSLNIMLH	not soluble
MSLKGTYEKSIHIVKKNKYKTIDVVFGNLKEGIPLAEKSINHGTRIIISRGGTYNMLKATYNIPIVEIKVDAYDIIKSYKEVKNSNEPFGIIGFNNVIYGFDIIEEILNKKITMIEIEKEEEIYDAIEKYRKKGINTYIGDTTVAHIVKRLNCKGILIESREENILRAIQQAEQILEATKDEQKREGHHHHHH	not soluble
MVGNTFGRIFRVTTCGESYAGAFRKNLQIPKELFGGLIAIVDGVPPGIKLTADFVQEELDKRRPGKTPLDTPRKERDKVYIFSGVMEDDITTGAPVGMIIPNDVIEDEHINKHKSYKEVVRPGQAGYTFFKKYGQFADNIGAGRASGRETAARVAAGAVAKAVLDTMGIDVIAFVTEIHGIKAQENITYEMAKANYRKNEINCPDLEKAKEMIEELKRIKEEGDSVGGVVEIIARGVPAGLGEPVFDKLQATLAHALMSIGAIKGIEFGEGFGHTKLKGSESNDVPYYDEASGRVRFKTNRAGGILGGISNGEDIRIRVAVKPTPTISIPQKTVNMYTLENVEVEFNTRNDPSICPRIYPVCEAMVRIALLDALYIAKGYRAISSNIDPRWDRL	not soluble
MGSDKIHHHHHHTVDNRHDPLESMNRAVFSFNEKLDEVVLEPVARGYQRFIPSPVRMIVGNFFSNLDDVVVAANSLLQLKFMDAMASTTRIVINTTFGMLGAIDLASDISQVSDIDISKRNEDFGQTLGFYGIGSGPYLVLPILGPSTVRDTVGIGVDSTIFHPARAIYTSFDLLTVRLPVTTVEFIDRREQLLDLDKTLEEASLDKYEFVRDAYLQRRESLIKNDGAASEEEPVNFDEEEIIIDD	not soluble
MQLEYPLTNHMKGNIVLTQEKTAIAYYRVRSETVMLTDVEKKLKTKRKVARALNRLKANDGFEINLLPVNADIRGKMGAMRSLIDSNNYEVGVDKLMKTAMVLEQEMGMVYEYTWIIGVPLIKKDLAVDLKETVTNSISNVSEKFVKGLGFDVELAEYWEKDYREQELEVYQNLSELLIERLTEDELYYYQAYQFLKNIPHERQDVLSSQNLDNLMATKIKPLFGGGLHLNCDYGESYISYLPMGDVGVFLDGNHFLEVVQKMPFPVEVKIQATFAESKGQLALSGRSSRARTRTKNIMQEAHLAGSKQKRKIVEGQLSLDDLDQKIDDGVDIIDWKAVIVVSGSTKKQMRARKKYLINRFDSLDIPLIKATFDNPYLFQSTLFGNFLRMQTSRWQHTSTIESFAELNFFTSLHAGTKLGFYLGRVDTTLEEKEDRKSIISSSKNLIFMNMLLANKEGVDGKKTNNPHWALTGDTGNGKSVTAKTLFMQMALLKDRVLYIDPKKEMRKQFMYTINDPEYQKKYPLDVDFVKSFNFVTLDVRDTKNHGVLDPIVLFDETEAIATTKAMLTNIYEGTWNLKQKTEINEAIAKVVLERKEGKKVGFWHVIERLVESEISDVKDMGRFILSTVKGSVLELAFSHGDVEGLSFDKKVTILEIEDLDLPTDKNENLDENKRLSVTLMFALGTFCSKFGSRNPKEETVTFFDESWIFQSSPEGKAILKSMKRIGRSFNNFLVLITQSTNDLDDSEDGTGFGTVICFDEVQNREGVLKYLNLPVNEINMKWVSNMVQGQCLMKDMFGQTNRIVVHVIFEEWLELFKTVDDTEASKMENRFVA	not soluble
MNYNSKMEPLAIPEYGRNIQNMVNYCMTIGDRDERNRCAQTIITIMGNMFPERRENSETKHILWDHLAIMSGFKLDIDYPMEIISPELLERKPKAVSYSANDIVYRHYGHLIQEMILKACAMEQGEERYALELLIANQMKRSYLTWNKDTVDDYKIFKDLYELSEGRIELTEESCHLTIPNASDRKDNNNTKRNKVFRRK	not soluble
MTPKRALISLTSYHGPFYKDGAKTGVFVVEILRSFDTFEKHGFEVDFVSETGGFGWDEHYLPKSFIGGEDKMNFETKNSAFNKALARIKTANEVNASDYKVFFASAGHGALFDYPKAKNLQDIASKIYANGGVIAAICHGPLLFDGLIDIKTTRPLIEGKAITGFPLEGEIALGVDDILRSRKLTTVERVANKNGAKYLAPIHPWDDYSITDGKLVTGVNANSSYSTTIRAINALYSVEHHHHH	soluble
MGSDKIHHHHHHMTQLANTKFSLNDFELRDGIYFPSDYEQLNNTQHKKTWDAIGKTYYGSQKIEKLADTSPIKQDYTLLTGTPGGTWNKFPLNKSVGSILEIGSGYGRAPLHLSKAKNLRCEKYYGIDISEPLLRRLIKVKQEYNFFPEAEFNLICTSAEILPLEDNSIDLVISNCVFMHIPDAQLRSLLADISRVLKPGGIFVFNHSFHNKSCPSHIIHNFVRKLNPFVRNPVYLKQYSSAEINEMLASAGIQTKCPQYIVEPTEEYAILPETIKGIPVPFAKAINRSLKPSDALKETLAYGFSAYSSQLD	not soluble
MSLSNYWLGLDCGGSWLKAGLYDGAGREVAVQRLPLHALSPQPGWVERDMTELWQQCASVISKLLAHTGVSGSQIRGLGISAQGKGLFLLDKSDRPLGKAILSSDRRAMEIVQRWQKEAVPQKLYPLTRQTLWTGHPVSLLRWVKENEPQRYAQIGCVMMTHDYLRWCLTGVKGCEESNISESNLYNMATGQYDPRLTEWLGISEIDSALSPVVGSAEICGEITAQAAAITGLAAGTPVVGGLFDVVSTALCAGIEDESTLNAVMGTWAVTSGIAHGLRDHEAHPYVYGRYVNDGQYIVHEASPTSSGNLEWFTAQWGDLSFDEINQAVASLPKAGSDLFFLPFLYGSNAGLEMTCGFYGMQALHNRAHLLQALYEGVVFSHMTHLNRMRERFTEVCALRVTGGPAHSDVWMQMLADVSGLRIELPQVEETGCFGAALAARVGTGVYRDFREAQRDLQHPVRTLLPDMTAHALYQRKYRQYQDLIEALQGYHARIKEHALEGHHHHHH	soluble
MQEVAMSSQEASKMLRTYNIAWWGNNYYDVNELGHISVCPDPDVPEARVDLAQLVKTREAQGQRLPALFCFPQILQHRLRSINAAFKRARESYGYNGDYFLVYPIKVNQHRRVIESLIHSGEPLGLEAGSKAELMAVLAHAGMTRSVIVCNGYKDREYIRLALIGEKMGHKVYLVIEKMSEIAIVLDEAERLNVVPRLGVRARLASQGSGKWQSSGGEKSKFGLAATQVLQLVETLREAGRLDSLQLLHFHLGSQMANIRDIATGVRESARFYVELHKLGVNIQCFDVGGGLGVDYEGTRSQSDCSVNYGLNEYANNIIWAIGDACEENGLPHPTVITESGRAVTAHHTVLVSNIIGVERNEYTVPTAPAEDAPRALQSMWETWQEMHEPGTRRSLREWLHDSQMDLHDIHIGYSSGIFSLQERAWAEQLYLSMCHEVQKQLDPQNRAHRPIIDELQERMADKMYVNFSLFQSMPDAWGIDQLFPVLPLEGLDQVPERRAVLLDITCDSDGAIDHYIDGDGIATTMPMPEYDPENPPMLGFFMVGAYQEILGNMHNLFGDTEAVDVFVFPDGSVEVELSDEGDTVADMLQYVQLDPKTLLTQFRDQVKKTDLDAELQQQFLEEFEAGLYGYTYLEDELEHHHHHH	not soluble
MKKIEIFDPAMCCPTGLCGTNINPELMRIAVVIESLKKQGIIVTRHNLRDEPQVYVSNKTVNDFLQKHGADALPITLVDGEIAVSQTYPTTKQMSEWTGVNLD	soluble
MEDIGADSDDFFSLAEELPQNEDLLESEDDAPIIKLINAMLGEAIKEGASDIHIETFEKTLSIRFRVDGVLREVLAPSRKLSSLLVSRVKVMAKLDIAEKRVPQDGRISLRIGGRAVDVRVSTMPSSHGERVVMRLLDKNATRLDLHSLGMTAHNHDNFRRLIKRPHGIILVTGPTGSGKSTTLYAGLQELNSSERNILTVEDPIEFDIDGIGQTQVNPRVDMTFARGLRAILRQDPDVVMVGEIRDLETAQIAVQASLTGHLVMSTLHTNTAVGAVTRLRDMGIEPFLISSSLLGVLAQRLVRTLCPDCKEPYEADKEQRKLFDSKKKEPLILYRATGCPKCNHKGYRGRTGIHELLLVDDALQELIHSEAGEQAMEKHIRATTPSIRDDGLDKVRQGITSLEEVMRGSRSHHHHHH	soluble
MTIDRVCTIGPASNNKETLAKLINNGMKIVRLNLSHGTHESHKDIIRLVKSLDDSIKILGDVQGPKIRLGEIKGEQITLQAGDSFMLRTQPVTGSSTEASVDYEGIANDVKVGSRILMNDGEVELIVEKVSTDKIETKVKTGGNISSHKGVNLPGAIVSLPAITEKDKKDIQFLLEEDVDFIACSFVRKPSHIKEIRDFIQQYKETSPNLIAKIETMEAIENFQDICKEADGIMIARGDLGVELPYQFIPLLQKMMIQECNRTNTYVITATQMLQSMVDHSIPTRAEVTDVFQAVLDGTNAVMLSAESASGEHPVESVSTLRLVSEFAEHVKKDGPFVMKDVLELLHKSLDE	soluble
